# From PMC5402698
# How the values were obtained:
# [1] = target: T1, EcoRV endonuclease (wild type) (UniProt P04390 2-245); test: X-ray crystallography
# [2] = target: T1, EcoRV endonuclease (wild type); test: NMR
# [3] = target: T1, EcoRV endonuclease (wild type); test: NMR; remark: listed apart in the source
# [4] = target: T1, EcoRV endonuclease (wild type); test: NMR; remark: listed apart in the source
# [5] = target: T1, EcoRV endonuclease (wild type); test: X-ray crystallography; remark: listed apart in the source
# T1 sequence (P04390 2-245): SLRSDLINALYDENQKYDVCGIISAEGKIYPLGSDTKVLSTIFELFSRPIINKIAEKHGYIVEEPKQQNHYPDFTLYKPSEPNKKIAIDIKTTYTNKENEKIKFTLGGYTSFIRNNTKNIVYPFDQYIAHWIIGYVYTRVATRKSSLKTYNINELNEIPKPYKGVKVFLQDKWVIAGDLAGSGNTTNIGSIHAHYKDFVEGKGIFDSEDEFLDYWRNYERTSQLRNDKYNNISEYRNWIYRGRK
binder,measurement,setting,value
cognate 12 bp crystal duplex (dsDNA) DNA 1: AAAGATATCTTT DNA 2: AAAGATATCTTT,binding result,[1],binds
nonspecific 16 bp inverted site CTATAG (dsDNA) DNA 1: GCAAACTATAGTTTCG DNA 2: CGAAACTATAGTTTGC,binding result,[2],binds
cleaved 24 bp duplex products (dsDNA) DNA 1: CGCTGGAAAGAT DNA 2: ATCTTTCCAGCG DNA 3: ATCTTTGGAGGC DNA 4: GCCTCCAAAGAT,binding result,[3],binds
cognate 16 bp GATATC (dsDNA) DNA 1: GCAAAGATATCTTTCG DNA 2: CGAAAGATATCTTTGC,binding result,[4],binds
cleaved 12 bp crystal duplex (dsDNA) DNA 1: AAAGAT DNA 2: ATCTTT,binding result,[5],binds
